Reference: patent publication US20050239203, “Regulation of endogenous gene expression in cells using zinc finger proteins” (published 2005)

Key:
Zif268 (Mus musculus) = assay: EMSA; conditions: MBP fusion, same conditions; target sequence not given
[1] = tested on: SP-1 zinc finger domain (Homo sapiens); assay: EMSA; conditions: MBP fusion, same conditions; target sequence not given
VEGF3a/1 six-finger ZFP [2] = biological target: T1, VEGF3a/1 six-finger ZFP (synthetic); assay: EMSA; apparent Kd, 37 C; complex half-life more than 10x longer than VEGF1; conditions: tags: N-terminal MBP fusion; label: 5'-32P
T1 chain: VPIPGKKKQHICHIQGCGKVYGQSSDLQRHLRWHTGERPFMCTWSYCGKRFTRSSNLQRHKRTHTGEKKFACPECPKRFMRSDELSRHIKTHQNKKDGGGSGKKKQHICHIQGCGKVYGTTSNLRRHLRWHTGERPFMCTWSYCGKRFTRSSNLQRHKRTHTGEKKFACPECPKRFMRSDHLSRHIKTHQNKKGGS
Experimental: (§1) For the EMSA studies, 20 μl binding reactions contained 10 fmole (0.5 nM) 5′-³²P-labeled double-stranded target DNA, 35 mM Tris HCl (pH 7.8), 100 mM KCl, 1 mM MgCl₂, 5 mM dithiothreitol, 10% glycerol, 20 μg/ml poly dI-dC, 200 μg/ml bovine serum albumin, and 25 μM ZnCl₂. Protein was added as one fifth volume from a 3-fold dilution series. Binding was allowed to proceed for 60 min at either room temperature or 37° C. Polyacrylamide gel electrophoresis was carried out at room temperature or 37° C. using precast 10% or 10-20% Tris-HCl gels (BioRad) and standard Tris-Glycine runmning buffer. […] Thus, the 18-bp binding ZFP bound with high affinity to its target site. In a parallel experiment, VEGF1 protein was tested against its target using the oligonucleotides described in Example I, yielding an apparent Kd of approximately 2.5 nM.
The apparent Kd is a useful measure of the affinity of a protein for its DNA target. However, for a DNA binding site either in vitro or in vivo, its occupancy is determined to a large extent by the off-rate of the DNA-binding protein. The conditions for EMSA were as described above; binding and electrophoresis were performed at 37° C. […] Thus, under these in vitro conditions, the occupancy of the target site is much higher for the 18-bp binding protein than for the 9-bp binding protein.

VEGF3a/1 six-finger ZFP [3] = biological target: T1, VEGF3a/1 six-finger ZFP; assay: EMSA; apparent Kd, room temperature, 25 uM ZnCl2, poly dI-dC; conditions: tags: N-terminal MBP fusion; label: 5'-32P
Experimental: as §1

VEGF1-KRAB = biological target: T2, VEGF1-KRAB (synthetic, UniProt P08047 SEQ:1-99); assay: cell_activity; endogenous VEGF ELISA, DFX-treated 293 cells; conditions: tags: SV40 NLS, KRAB (KOX1), FLAG
T2 chain: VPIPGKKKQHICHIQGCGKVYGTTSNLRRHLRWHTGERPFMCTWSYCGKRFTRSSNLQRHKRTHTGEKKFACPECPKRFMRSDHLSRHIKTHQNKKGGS
Experimental: Eighteen hours post transfection, the 293 cells were induced by treatment with 100 μM DFX (desferrioxamine), resulting in a rapid and lasting transcriptional activation of the VEGF gene and also in a gradual increase in VEGF mRNA stability (Ikeda et al., J. Biol. Chem. 270:19761-19766 (1995)). Under routine culture conditions, 293 cells secrete a low level of VEGF in the culture media. The cells were allowed to incubate an additional 24 hours before the supernatants were collected for determination of VEGF levels by an ELISA assay.

Molecule: Zif268 target (sequence not stated)
- Kd (Zif268 (Mus musculus)): 60 nM

Molecule: SP-1 target (sequence not stated)
- Kd [1]: 65 nM

B1: JVF9/JVF10 VEGF 18-bp target (dsDNA)
DNA 1: AGCGAGCGGGGAGGATCGCGGAGGCTTGGGGCAGCCGGGTAG
DNA 2: CGCTCTACCCGGCTGCCCCAAGCCTCCGCGATCCTCCCCGCT
- Kd (VEGF3a/1 six-finger ZFP [2]): ~9 nM
- Kd (VEGF3a/1 six-finger ZFP [3]): ~1.5 nM

B2: endogenous VEGF promoter target region (dsDNA)
DNA 1: AGCGGGGAGGATCGCGGAGGCTTGG
DNA 2: CCAAGCCTCCGCGATCCTCCCCGCT
- activity (VEGF1-KRAB): 2 fold repression
